In paper PMC4339303:

Key:
Test in all cases: proximity ligation
[1] = target: double-mutant V5-RTEL1^C1252A/C1255A (mouse) (mouse)
[2] = target: full-length WT V5-RTEL1 (mouse) (mouse)
[3] = target: single-mutant V5-RTEL1^R1237H (mouse) (mouse)

Sequence of full-length WT V5-RTEL1 (mouse) (mouse) (Q0VGM9 whole entry): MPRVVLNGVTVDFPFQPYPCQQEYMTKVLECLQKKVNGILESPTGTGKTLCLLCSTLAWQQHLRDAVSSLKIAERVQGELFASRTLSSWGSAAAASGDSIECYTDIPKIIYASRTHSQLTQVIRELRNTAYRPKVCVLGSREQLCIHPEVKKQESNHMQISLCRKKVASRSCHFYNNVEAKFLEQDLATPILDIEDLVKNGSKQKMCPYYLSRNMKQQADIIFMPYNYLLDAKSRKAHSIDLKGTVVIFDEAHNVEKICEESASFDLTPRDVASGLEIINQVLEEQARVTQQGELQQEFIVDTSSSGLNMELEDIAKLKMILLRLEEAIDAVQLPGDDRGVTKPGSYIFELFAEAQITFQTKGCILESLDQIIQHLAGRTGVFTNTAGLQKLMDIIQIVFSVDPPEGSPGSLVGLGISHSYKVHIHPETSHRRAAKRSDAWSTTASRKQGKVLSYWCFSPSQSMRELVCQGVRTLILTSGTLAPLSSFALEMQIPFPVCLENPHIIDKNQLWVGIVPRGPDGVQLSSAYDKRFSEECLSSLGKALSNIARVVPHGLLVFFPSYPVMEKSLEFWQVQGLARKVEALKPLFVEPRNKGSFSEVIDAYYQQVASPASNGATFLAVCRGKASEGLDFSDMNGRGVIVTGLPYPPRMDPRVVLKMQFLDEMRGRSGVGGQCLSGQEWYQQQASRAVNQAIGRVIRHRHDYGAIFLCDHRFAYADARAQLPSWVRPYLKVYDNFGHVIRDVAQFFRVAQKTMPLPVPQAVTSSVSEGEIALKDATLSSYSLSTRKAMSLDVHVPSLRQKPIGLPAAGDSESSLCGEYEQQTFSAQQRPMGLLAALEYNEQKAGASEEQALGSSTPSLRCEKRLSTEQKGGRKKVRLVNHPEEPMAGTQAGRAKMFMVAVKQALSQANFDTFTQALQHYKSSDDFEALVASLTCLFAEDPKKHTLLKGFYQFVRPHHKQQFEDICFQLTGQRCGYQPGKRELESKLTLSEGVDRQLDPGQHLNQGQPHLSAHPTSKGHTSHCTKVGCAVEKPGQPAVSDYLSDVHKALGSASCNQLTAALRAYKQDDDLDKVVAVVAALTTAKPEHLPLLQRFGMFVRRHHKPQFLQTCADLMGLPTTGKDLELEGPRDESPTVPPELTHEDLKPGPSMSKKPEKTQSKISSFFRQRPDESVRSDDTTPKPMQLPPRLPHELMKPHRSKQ

Question: “endogenous PCNA (proliferating cell nuclear antigen) (from UniProt P17918 1-261) (natural protein)” was tested. Which PLA foci per nucleus (PLA foci per nucleus) [1] did it give?
Answer: Its PLA foci per nucleus (PLA foci per nucleus) is 11.6.

Question: And the PLA foci per nucleus (foci per nucleus) [2]?
Answer: Its PLA foci per nucleus (foci per nucleus) is 11.5.

Question: What about the PLA foci per nucleus (PLA foci per nucleus) [3] of the same substance?
Answer: The PLA foci per nucleus (PLA foci per nucleus) was 13.4.
